We go through twelve molecules from US20240115744A1, “FIBRIN-BINDING COMPOUNDS FOR IMAGING AND TREATMENT” (Collagen Medical, LLC, priority 2019, published 2024).

The nature of series [1]: Blood analysis in rat model of carotid artery crush injury (blood clearance). In kind it is in vivo. The conditions noted are these: relative to the other compounds compared. The protocol: Rat carotid endothelial injury model in vivo studies were conducted, wherein the common carotid artery is isolated and crushed briefly with a hemostat, resulting in mural thrombus formation at the site of the crush. The vessel wall fibrin is then imaged with our PET compounds. All six compounds were evaluated in this model.
Adult male Wistar rats were anesthetized by isoflurane (1-2% in medical air). Body temperature was maintained at 37° C. using a thermo-regulated heating pad. The right femoral vein and artery were cannulated for compound injection and blood sampling, respectively. Endothelial injury was induced by crush injury to the right common carotid artery (1-2 cm proximal to the carotid bifurcation) by clamping the vessel with a hemostat for 5 minutes. Immediately following the surgical procedures, rats were placed in a micro-PET/CT scanner. Compound (200-600 μL) was injected, PET-CT images were acquired, and blood samples were drawn from the femoral artery prior to compound injection and at 2, 5, 10, 15, 30, 60, 90, 120 min post injection. Tissues were harvested at the end for ex vivo analyses.
Blood samples were drawn from prior to probe injection and at 2, 5, 10, 15, 30, 60, 90, 120 min post injection. Each blood sample was weighed and counted using a gamma-counter. The activity in each sample was calculated as percent injected dose (% ID) per gram of tissue.

Series [2] addresses soluble fibrin fragment DD(E). Briefly: fluorescence polarization, displacement of the TRITC peptide from DD(E). On the technique in general: Fluorescence polarisation rises when a labelled molecule tumbles more slowly, as on binding a larger partner.
Series [3] deals with soluble fibrin fragment DD(E). Briefly: fluorescence polarization DD(E) assay.

*1 amine or outer side, *2 acyl side, *3 side chain or, on linkers, in order; H or OH if unused. Where a SMILES comes first, the peptide text is derived from it. Bridges are numbered along the chain shown (N, C = ends). [ ]: non-standard residue; d: D form. The star is where a group is joined. NODAGA = O=C(O)CN1CCN(CC(=O)O)CCN(C(CCC(=O)*)C(=O)O)CC1; Tyr(3-Cl) = N[C@@H](Cc1ccc(O)c(Cl)c1)C(=O)O; Nicotinoyl(6-F) = O=C(c1ccc(F)nc1)*; X1 = O=C([C@@H]1CC(O)CN1[*:1])[*:2]; Hyp = O=C(O)[C@@H]1C[C@@H](O)CN1 Where only a bound is given, the exact number is not on record here.

As for `CC[C@H](C)[C@H](NC(=O)[C@H](Cc1cnc[nH]1)NC(=O)[C@@H]1CSSC[C@H](NC(=O)[C@@H](CCC(=O)O)NC(=O)[C@@H](Cc2ccc(O)cc2)NC(=O)CCC(C(=O)O)N2CCN(CC(=O)O)CCN(CC(=O)O)CC2)C(=O)N2CC(O)C[C@H]2C(=O)N[C@@H](Cc2ccc(O)c(Cl)c2)C(=O)NCC(=O)N[C@@H](CC(C)C)C(=O)N1)C(=O)N[C@@H](CCC(N)=O)C(N)=O` (stereo partly shown) [Compound ^68Ga-19, metal not drawn] ({NODAGA}-[dY][dE]C[X1][Tyr(3-Cl)]GLCHIQ-NH2; disulfide 3-8), the blood clearance result in series [1] (rat carotid artery crush injury, 2-120 min post injection) is reported as “faster blood clearance”. The metabolic stability result in series [1] (rat) is reported as “better metabolic stability”.

B1: Compound 9 (peptide)
peptide: {Nicotinoyl(6-F)}-[dY][dE]C[Hyp][Tyr(3-Cl)]GLCYI[dL]-NH2
modifications: disulfide 3-8
SMILES: CC[C@H](C)[C@H](NC(=O)[C@H](Cc1ccc(O)cc1)NC(=O)[C@@H]1CSSC[C@H](NC(=O)[C@@H](CCC(=O)O)NC(=O)[C@@H](Cc2ccc(O)cc2)NC(=O)c2ccc(F)nc2)C(=O)N2C[C@H](O)C[C@H]2C(=O)N[C@@H](Cc2ccc(O)c(Cl)c2)C(=O)NCC(=O)N[C@@H](CC(C)C)C(=O)N1)C(=O)N[C@H](CC(C)C)C(N)=O
As usually defined, the Ki is a measure of affinity in units of concentration, obtained from inhibition or displacement. The low end stands for tighter binding, the high end for weaker binding. Molecule B1 yielded a Ki in series [2] of 0.73 µM.

B2: Compound 13 (peptide)
peptide: {Nicotinoyl(6-F)}-Y[dE]C[Hyp][Tyr(3-Cl)]GLCYI[dQ]-NH2
modifications: disulfide 3-8
SMILES: CC[C@H](C)[C@H](NC(=O)[C@H](Cc1ccc(O)cc1)NC(=O)[C@@H]1CSSC[C@H](NC(=O)[C@@H](CCC(=O)O)NC(=O)[C@H](Cc2ccc(O)cc2)NC(=O)c2ccc(F)nc2)C(=O)N2C[C@H](O)C[C@H]2C(=O)N[C@@H](Cc2ccc(O)c(Cl)c2)C(=O)NCC(=O)N[C@@H](CC(C)C)C(=O)N1)C(=O)N[C@H](CCC(N)=O)C(N)=O
Molecule B2 displayed a Ki in series [2] of 1.25 µM.

B3: Compound 2 (peptide)
peptide: {Nicotinoyl(6-F)}-[dY][dE]C[Hyp][Tyr(3-Cl)]GLCHIQ-NH2
modifications: disulfide 3-8
SMILES: CC[C@H](C)[C@H](NC(=O)[C@H](Cc1c[nH]cn1)NC(=O)[C@@H]1CSSC[C@H](NC(=O)[C@@H](CCC(=O)O)NC(=O)[C@@H](Cc2ccc(O)cc2)NC(=O)c2ccc(F)nc2)C(=O)N2C[C@H](O)C[C@H]2C(=O)N[C@@H](Cc2ccc(O)c(Cl)c2)C(=O)NCC(=O)N[C@@H](CC(C)C)C(=O)N1)C(=O)N[C@@H](CCC(N)=O)C(N)=O
In general, Kd refers to the equilibrium constant for the complex coming apart. For B3, in series [3], the Kd was under 0.6 µM. Moreover, in series [2], the Ki was 0.07 µM.

B4: Compound 7 (peptide)
peptide: {Nicotinoyl(6-F)}-Y[dE]C[Hyp][Tyr(3-Cl)]GLCYIQ-NH2
modifications: disulfide 3-8
SMILES: CC[C@H](C)[C@H](NC(=O)[C@H](Cc1ccc(O)cc1)NC(=O)[C@@H]1CSSC[C@H](NC(=O)[C@@H](CCC(=O)O)NC(=O)[C@H](Cc2ccc(O)cc2)NC(=O)c2ccc(F)nc2)C(=O)N2C[C@H](O)C[C@H]2C(=O)N[C@@H](Cc2ccc(O)c(Cl)c2)C(=O)NCC(=O)N[C@@H](CC(C)C)C(=O)N1)C(=O)N[C@@H](CCC(N)=O)C(N)=O
In turn, B4 gave a Kd in series [3] of under 0.6 µM. In series [2], this molecule had a Ki of 0.58 µM.

B5: Compound 3 (peptide)
peptide: {Nicotinoyl(6-F)}-[dY][dE]C[Hyp][Tyr(3-Cl)]GLCHI[dL]-NH2
modifications: disulfide 3-8
SMILES: CC[C@H](C)[C@H](NC(=O)[C@H](Cc1c[nH]cn1)NC(=O)[C@@H]1CSSC[C@H](NC(=O)[C@@H](CCC(=O)O)NC(=O)[C@@H](Cc2ccc(O)cc2)NC(=O)c2ccc(F)nc2)C(=O)N2C[C@H](O)C[C@H]2C(=O)N[C@@H](Cc2ccc(O)c(Cl)c2)C(=O)NCC(=O)N[C@@H](CC(C)C)C(=O)N1)C(=O)N[C@H](CC(C)C)C(N)=O
B5 displayed a Kd in series [3] of under 0.6 µM. This molecule also returned a Ki in series [2] of 0.14 µM.

B6: Compound 5 (peptide)
peptide: {Nicotinoyl(6-F)}-Y[dE]C[Hyp][Tyr(3-Cl)]GLCHI[dQ]-NH2
modifications: disulfide 3-8
SMILES: CC[C@H](C)[C@H](NC(=O)[C@H](Cc1c[nH]cn1)NC(=O)[C@@H]1CSSC[C@H](NC(=O)[C@@H](CCC(=O)O)NC(=O)[C@H](Cc2ccc(O)cc2)NC(=O)c2ccc(F)nc2)C(=O)N2C[C@H](O)C[C@H]2C(=O)N[C@@H](Cc2ccc(O)c(Cl)c2)C(=O)NCC(=O)N[C@@H](CC(C)C)C(=O)N1)C(=O)N[C@H](CCC(N)=O)C(N)=O
With B6, the Kd in series [3] is under 0.6 µM. Moreover, the Ki in series [2] was 0.23 µM.

B7: Compound 4 (peptide)
peptide: {Nicotinoyl(6-F)}-Y[dE]C[Hyp][Tyr(3-Cl)]GLCHIQ-NH2
modifications: disulfide 3-8
SMILES: CC[C@H](C)[C@H](NC(=O)[C@H](Cc1c[nH]cn1)NC(=O)[C@@H]1CSSC[C@H](NC(=O)[C@@H](CCC(=O)O)NC(=O)[C@H](Cc2ccc(O)cc2)NC(=O)c2ccc(F)nc2)C(=O)N2C[C@H](O)C[C@H]2C(=O)N[C@@H](Cc2ccc(O)c(Cl)c2)C(=O)NCC(=O)N[C@@H](CC(C)C)C(=O)N1)C(=O)N[C@@H](CCC(N)=O)C(N)=O
The molecule B7 registered a Kd in series [3] of under 0.6 µM. Moreover, the Ki in series [2] was 0.18 µM.

B8: Compound 6 (peptide)
peptide: {Nicotinoyl(6-F)}-[dY][dE]C[Hyp][Tyr(3-Cl)]GLCYIQ-NH2
modifications: disulfide 3-8
SMILES: CC[C@H](C)[C@H](NC(=O)[C@H](Cc1ccc(O)cc1)NC(=O)[C@@H]1CSSC[C@H](NC(=O)[C@@H](CCC(=O)O)NC(=O)[C@@H](Cc2ccc(O)cc2)NC(=O)c2ccc(F)nc2)C(=O)N2C[C@H](O)C[C@H]2C(=O)N[C@@H](Cc2ccc(O)c(Cl)c2)C(=O)NCC(=O)N[C@@H](CC(C)C)C(=O)N1)C(=O)N[C@@H](CCC(N)=O)C(N)=O
For B8, in series [3], the Kd is under 0.6 µM. In series [2], this molecule returned a Ki of 0.34 µM.

B9: Compound 8 (peptide)
peptide: {Nicotinoyl(6-F)}-Y[dE]C[Hyp][Tyr(3-Cl)]GLCHI[dL]-NH2
modifications: disulfide 3-8
SMILES: CC[C@H](C)[C@H](NC(=O)[C@H](Cc1c[nH]cn1)NC(=O)[C@@H]1CSSC[C@H](NC(=O)[C@@H](CCC(=O)O)NC(=O)[C@H](Cc2ccc(O)cc2)NC(=O)c2ccc(F)nc2)C(=O)N2C[C@H](O)C[C@H]2C(=O)N[C@@H](Cc2ccc(O)c(Cl)c2)C(=O)NCC(=O)N[C@@H](CC(C)C)C(=O)N1)C(=O)N[C@H](CC(C)C)C(N)=O
As to B9, in series [2], the Ki came to 0.64 µM.

B10: Compound 14 (peptide)
peptide: {Nicotinoyl(6-F)}-Y[dE]C[Hyp][Tyr(3-Cl)][dD]LCYIQ-NH2
modifications: disulfide 3-8
SMILES: CC[C@H](C)[C@H](NC(=O)[C@H](Cc1ccc(O)cc1)NC(=O)[C@@H]1CSSC[C@H](NC(=O)[C@@H](CCC(=O)O)NC(=O)[C@H](Cc2ccc(O)cc2)NC(=O)c2ccc(F)nc2)C(=O)N2C[C@H](O)C[C@H]2C(=O)N[C@@H](Cc2ccc(O)c(Cl)c2)C(=O)N[C@H](CC(=O)O)C(=O)N[C@@H](CC(C)C)C(=O)N1)C(=O)N[C@@H](CCC(N)=O)C(N)=O
B10 returned a Ki in series [2] of 2.76 µM.

B11: Compound 12 (peptide)
peptide: {Nicotinoyl(6-F)}-Y[dE]C[Hyp][Tyr(3-Cl)]DLCYIQ-NH2
modifications: disulfide 3-8
SMILES: CC[C@H](C)[C@H](NC(=O)[C@H](Cc1ccc(O)cc1)NC(=O)[C@@H]1CSSC[C@H](NC(=O)[C@@H](CCC(=O)O)NC(=O)[C@H](Cc2ccc(O)cc2)NC(=O)c2ccc(F)nc2)C(=O)N2C[C@H](O)C[C@H]2C(=O)N[C@@H](Cc2ccc(O)c(Cl)c2)C(=O)N[C@@H](CC(=O)O)C(=O)N[C@@H](CC(C)C)C(=O)N1)C(=O)N[C@@H](CCC(N)=O)C(N)=O
Molecule B11 returned a Ki in series [2] of 1.2 µM.
